Reference: publication PMC9364715

Biological target: Ad5 hexon with DogTag inserted at HVR5, on Ad-DogTag virions (human adenovirus 5 (Ad5)) (UniProt P04133)
Assay: SDS-PAGE gel shift

## DogCatcher fused to SARS-CoV-2 spike receptor-binding domain (DogCatcher-RBD) (from UniProt P0DTC2 319-532) (designed binder)
  percent of hexon covalently coupled (% of hexon monomers): 57
